From PMC6972931, “YqfB protein from Escherichia coli: an atypical amidohydrolase active towards N^4-acylcytosine derivatives” (Scientific Reports, 2020) come the findings set out here.

Holding throughout (assay): spectrophotometric hydrolysis assay, fit with product inhibition
What all share (type): biochemical, Escherichia coli
What all share (details): 50 mM potassium phosphate, pH 8.0, 22 °C

Data set [1] concerns T1, CC(=O)Nc1cc[nH]c(=O)n1.
T1 construct: full length (103 residues), C-terminal His6 kept, pET21b, expressed in E. coli BL21(DE3) yqfB::Km, monomer
From the text: (§1) spectrophotometric hydrolysis assay, fit with product inhibition on YqfB with a C-terminal His6 tag

Data set [2] concerns T2, CC(=O)Nc1ccn([C@@H]2O[C@H](CO)[C@@H](O)[C@H]2O)c(=O)n1.
T2 construct: full length (103 residues), C-terminal His6 kept, pET21b, expressed in E. coli BL21(DE3) yqfB::Km, monomer
Text: as §1

Substrate in data set [3]: CC(=O)Nc1cc[nH]c(=O)n1
Text: as §1

Substrate in data set [4]: CC(=O)Nc1ccn([C@@H]2O[C@H](CO)[C@@H](O)[C@H]2O)c(=O)n1
Text: as §1

Substrate in data set [5]: CC(=O)Nc1ccn([C@H]2C[C@H](O)[C@@H](CO)O2)c(=O)n1
Text: as §1

Substrate in data set [6]: CC(=O)Nc1nc(O)ncc1F
Text: as §1

Substrate in data set [7]: CC(C)C(=O)Nc1ccn([C@H]2C[C@H](O)[C@@H](CO)O2)c(=O)n1
Text: as §1

Substrate in data set [8]: CCCCCC(=O)Nc1ccn([C@H]2C[C@H](O)[C@@H](CO)O2)c(=O)n1
Text: as §1

Substrate in data set [9]: CCCCCOC(=O)Nc1nc(=O)n([C@@H]2O[C@H](C)[C@@H](O)[C@H]2O)cc1F
Text: as §1

Substrate in data set [10]: O=C(Nc1ccn([C@@H]2O[C@H](CO)[C@@H](O)[C@H]2O)c(=O)n1)c1ccccc1
Text: as §1

Substrate in data set [11]: O=C(Nc1ccn([C@H]2C[C@H](O)[C@@H](CO)O2)c(=O)n1)c1ccccc1
Text: as §1

Substrate in data set [12]: CC(=O)Nc1ccn([C@@H]2O[C@H](CO)[C@@H](O)[C@H]2O)c(=O)n1
From the text: spectrophotometric hydrolysis assay, fit with product inhibition on recombinant wild-type YqfB (tag-free)
The source holds these as a separate data set.

Substrate in data set [13]: CC(=O)Nc1ccn([C@@H]2O[C@H](CO)[C@@H](O)[C@H]2O)c(=O)n1
From the text: spectrophotometric hydrolysis assay, fit with product inhibition on recombinant YqfB with an N-terminal His6 tag
This is another data set of the same source.

With “YqfB with a C-terminal His6 tag (Escherichia coli K-12; E74A)”, in [1], the Km entry is recorded as “(3.0 ± 0.02) × 10^−4 M”; the catalytic constant (kcat) (as a rule, the number of substrate molecules converted per active site and unit of time at saturation) is 0.22 ± 0.001 s⁻¹; the kcat/Km (as a rule, the second-order rate constant that governs catalysis at low substrate concentration) turned out to be 700 ± 4 M⁻¹ s⁻¹. In addition, in data set [2], the Km result is “(2.0 ± 0.03) × 10^−6 M”, the kcat turned out to be 0.07 ± 0.0006 s⁻¹ and the kcat/Km turned out to be 30000 ± 500 M⁻¹ s⁻¹.
“YqfB with a C-terminal His6 tag (Escherichia coli K-12; D27A)”: in data set [2], the Km entry is “(2.9 ± 0.11) × 10^−4 M”, the kcat is 300 ± 16 s⁻¹ and the kcat/Km is 1.2e+06 ± 10000 M⁻¹ s⁻¹.
Turning to “YqfB with a C-terminal His6 tag (Escherichia coli K-12; H70A)”, in data set [2], the Km result is listed as “(5.0 ± 0.02) × 10^−5 M”, the turnover number (kcat) was found to be 23 ± 0.029 s⁻¹ and the kcat/Km came out at 400000 ± 2000 M⁻¹ s⁻¹.
As to “YqfB with a C-terminal His6 tag (Escherichia coli K-12; Y89A)”, in [2], the Km entry was “(2.2 ± 0.06) × 10^−3 M”, the kcat was determined as 40 ± 1.3 s⁻¹ and the kcat/Km turned out to be 19000 ± 900 M⁻¹ s⁻¹.

B1: YqfB with a C-terminal His6 tag (Escherichia coli K-12) (protein)
chain: MQPNDITFFQRFQDDILAGRKTITIRDESESHFKTGDVLRVGRFEDDGYFCTIEVTATSTVTLDTLTEKHAEQENMTLTELKKVIADIYPGQTQFYVIEFKCL
notes: full length (103 residues), C-terminal His6 kept, pET21b, expressed in E. coli BL21(DE3) yqfB::Km, monomer
For the molecule B1, the Km result is on record as “(7.0 ± 0.2) × 10^−5 M” in [3]; “(6.2 ± 0.1) × 10^−5 M” in data set [4]; “(4.00 ± 0.04) × 10^−4 M” in data set [5]; “(2.1 ± 0.2) × 10^−3 M” in [6]; “(1.9 ± 0.08) × 10^−3 M” in data set [7]; “(1.4 ± 0.1) × 10^−4 M” in data set [8]. In addition, the Km result is on record as “(7.0 ± 0.2) × 10^−4 M” in data set [9], “(5.1 ± 0.03) × 10^−3 M” in data set [10] and “(3.00 ± 0.01) × 10^−4 M” in data set [11]. Moreover, the kcat was 157 ± 1 s⁻¹ in [4]; 101 ± 1 s⁻¹ in data set [5]; 90 ± 7 s⁻¹ in data set [6]; 75 ± 3 s⁻¹ in [7]; 0.016 ± 0.003 s⁻¹ in data set [9]; 0.07 ± 0.01 s⁻¹ in data set [11]. Besides, the specificity constant (kcat/Km) in [4] was 2.2e+06 ± 100000 M⁻¹ s⁻¹; in data set [5], 230000 ± 2000 M⁻¹ s⁻¹; in data set [6], 40000 ± 3000 M⁻¹ s⁻¹; in data set [7], 37500 ± 600 M⁻¹ s⁻¹; in [9], 22 ± 0.1 M⁻¹ s⁻¹; in data set [11], 230 ± 10 M⁻¹ s⁻¹.

B2: recombinant wild-type YqfB (tag-free) (Escherichia coli K-12) (protein)
chain: MQPNDITFFQRFQDDILAGRKTITIRDESESHFKTGDVLRVGRFEDDGYFCTIEVTATSTVTLDTLTEKHAEQENMTLTELKKVIADIYPGQTQFYVIEFKCL
notes: full length (103 residues), no tag, pET21b-yqfB
For B2, in [12], the Km entry is on record as “(7.0 ± 0.1) × 10^−5 M”, the kcat was 196 ± 1 s⁻¹ and the kcat/Km was 2.8e+06 ± 300000 M⁻¹ s⁻¹.

B3: recombinant YqfB with an N-terminal His6 tag (Escherichia coli K-12) (protein)
chain: MQPNDITFFQRFQDDILAGRKTITIRDESESHFKTGDVLRVGRFEDDGYFCTIEVTATSTVTLDTLTEKHAEQENMTLTELKKVIADIYPGQTQFYVIEFKCL
notes: full length (103 residues), N-terminal His6 kept, pETDuet-1, expressed in E. coli BL21(DE3) yqfB::Km
Consider B3, for which, in data set [13], the Km entry was “(7.0 ± 0.1) × 10^−5 M”, the kcat was 154 ± 3 s⁻¹ and the catalytic efficiency (kcat/Km) was 2.5e+06 ± 200000 M⁻¹ s⁻¹.
